*1 amine or outer side, *2 acyl side, *3 side chain or, on linkers, in order; H or OH if unused. Where no end group is shown, it is not given here. Side-chain parts run from the residue outwards. [ ]: non-standard residue; d: D form. The star is where a group is joined. C20 diacid = O=C(O)CCCCCCCCCCCCCCCCCCC(=O)*; γGlu = O=C(O)[C@H](CCC(=O)[*:2])N[*:1]; NMeI = CC[C@H](C)[C@H](NC)C(=O)O; AEEA = NCCOCCOCC(=O)O; Aib = CC(C)(N)C(=O)O

The test concerns the target human corticotropin-releasing factor 2a (CRF2a receptor) (human), Q13324. Put plainly: cell-based or functional assay.

Sequence of human corticotropin-releasing factor 2a (CRF2a receptor) (human), Q13324 (Q13324 20-411): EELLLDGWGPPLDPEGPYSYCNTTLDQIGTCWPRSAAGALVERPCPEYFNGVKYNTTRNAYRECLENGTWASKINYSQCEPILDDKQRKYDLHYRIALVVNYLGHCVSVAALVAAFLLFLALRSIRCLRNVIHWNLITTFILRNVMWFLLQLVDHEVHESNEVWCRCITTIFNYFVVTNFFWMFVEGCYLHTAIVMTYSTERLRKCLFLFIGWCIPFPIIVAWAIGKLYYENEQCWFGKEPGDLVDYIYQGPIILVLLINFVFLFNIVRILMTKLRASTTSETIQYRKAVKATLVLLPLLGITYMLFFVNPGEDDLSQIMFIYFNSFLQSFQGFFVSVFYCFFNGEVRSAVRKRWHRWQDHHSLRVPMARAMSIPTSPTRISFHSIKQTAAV

B1: SEQ ID NO 238 (peptide)
peptide: Ac-IVLSLD[dV]PIKLK([AEEA-AEEA-γGlu-C20 diacid])KILLEQEKQKKQREQAETN[Aib]QILAQV-NH2
SMILES: CC[C@H](C)[C@H](NC(C)=O)C(=O)N[C@H](C(=O)N[C@@H](CC(C)C)C(=O)N[C@@H](CO)C(=O)N[C@@H](CC(C)C)C(=O)N[C@@H](CC(=O)O)C(=O)N[C@@H](C(=O)N1CCC[C@H]1C(=O)N[C@H](C(=O)N[C@@H](CCCCN)C(=O)N[C@@H](CC(C)C)C(=O)N[C@@H](CCCCNC(=O)COCCOCCNC(=O)COCCOCCNC(=O)CC[C@H](NC(=O)CCCCCCCCCCCCCCCCCCC(=O)O)C(=O)O)C(=O)N[C@@H](CCCCN)C(=O)N[C@H](C(=O)N[C@@H](CC(C)C)C(=O)N[C@@H](CC(C)C)C(=O)N[C@@H](CCC(=O)O)C(=O)N[C@@H](CCC(N)=O)C(=O)N[C@@H](CCC(=O)O)C(=O)N[C@@H](CCCCN)C(=O)N[C@@H](CCC(N)=O)C(=O)N[C@@H](CCCCN)C(=O)N[C@@H](CCCCN)C(=O)N[C@@H](CCC(N)=O)C(=O)N[C@@H](CCCNC(=N)N)C(=O)N[C@@H](CCC(=O)O)C(=O)N[C@@H](CCC(N)=O)C(=O)N[C@@H](C)C(=O)N[C@@H](CCC(=O)O)C(=O)N[C@H](C(=O)N[C@@H](CC(N)=O)C(=O)NC(C)(C)C(=O)N[C@@H](CCC(N)=O)C(=O)N[C@H](C(=O)N[C@@H](CC(C)C)C(=O)N[C@@H](C)C(=O)N[C@@H](CCC(N)=O)C(=O)N[C@H](C(N)=O)C(C)C)[C@@H](C)CC)[C@@H](C)O)[C@@H](C)CC)[C@@H](C)CC)C(C)C)C(C)C
Regarding B1, the EC50 [nM] (cAMP) was 0.11 nM.

B2: SEQ ID NO 239 (peptide)
peptide: [NMeI]VLSLD[dV]PIKLK([AEEA-AEEA-γGlu-C20 diacid])KILLEQEKQK[Aib]QREQAETN[Aib]QILAQV-NH2
modifications: N-terminus assumed
SMILES: CC[C@H](C)[C@H](NC)C(=O)N[C@H](C(=O)N[C@@H](CC(C)C)C(=O)N[C@@H](CO)C(=O)N[C@@H](CC(C)C)C(=O)N[C@@H](CC(=O)O)C(=O)N[C@@H](C(=O)N1CCC[C@H]1C(=O)N[C@H](C(=O)N[C@@H](CCCCN)C(=O)N[C@@H](CC(C)C)C(=O)N[C@@H](CCCCNC(=O)COCCOCCNC(=O)COCCOCCNC(=O)CC[C@H](NC(=O)CCCCCCCCCCCCCCCCCCC(=O)O)C(=O)O)C(=O)N[C@@H](CCCCN)C(=O)N[C@H](C(=O)N[C@@H](CC(C)C)C(=O)N[C@@H](CC(C)C)C(=O)N[C@@H](CCC(=O)O)C(=O)N[C@@H](CCC(N)=O)C(=O)N[C@@H](CCC(=O)O)C(=O)N[C@@H](CCCCN)C(=O)N[C@@H](CCC(N)=O)C(=O)N[C@@H](CCCCN)C(=O)NC(C)(C)C(=O)N[C@@H](CCC(N)=O)C(=O)N[C@@H](CCCNC(=N)N)C(=O)N[C@@H](CCC(=O)O)C(=O)N[C@@H](CCC(N)=O)C(=O)N[C@@H](C)C(=O)N[C@@H](CCC(=O)O)C(=O)N[C@H](C(=O)N[C@@H](CC(N)=O)C(=O)NC(C)(C)C(=O)N[C@@H](CCC(N)=O)C(=O)N[C@H](C(=O)N[C@@H](CC(C)C)C(=O)N[C@@H](C)C(=O)N[C@@H](CCC(N)=O)C(=O)N[C@H](C(N)=O)C(C)C)[C@@H](C)CC)[C@@H](C)O)[C@@H](C)CC)[C@@H](C)CC)C(C)C)C(C)C
B2 registered an EC50 [nM] (cAMP) of 0.11 nM.

B3: SEQ ID NO 237 (peptide)
peptide: [NMeI]VLSLD[dV]PIKLK([AEEA-AEEA-γGlu-C20 diacid])KILLEQEKQKEQREQAETN[Aib]QILAQV-NH2
modifications: N-terminus assumed
SMILES: CC[C@H](C)[C@H](NC)C(=O)N[C@H](C(=O)N[C@@H](CC(C)C)C(=O)N[C@@H](CO)C(=O)N[C@@H](CC(C)C)C(=O)N[C@@H](CC(=O)O)C(=O)N[C@@H](C(=O)N1CCC[C@H]1C(=O)N[C@H](C(=O)N[C@@H](CCCCN)C(=O)N[C@@H](CC(C)C)C(=O)N[C@@H](CCCCNC(=O)COCCOCCNC(=O)COCCOCCNC(=O)CC[C@H](NC(=O)CCCCCCCCCCCCCCCCCCC(=O)O)C(=O)O)C(=O)N[C@@H](CCCCN)C(=O)N[C@H](C(=O)N[C@@H](CC(C)C)C(=O)N[C@@H](CC(C)C)C(=O)N[C@@H](CCC(=O)O)C(=O)N[C@@H](CCC(N)=O)C(=O)N[C@@H](CCC(=O)O)C(=O)N[C@@H](CCCCN)C(=O)N[C@@H](CCC(N)=O)C(=O)N[C@@H](CCCCN)C(=O)N[C@@H](CCC(=O)O)C(=O)N[C@@H](CCC(N)=O)C(=O)N[C@@H](CCCNC(=N)N)C(=O)N[C@@H](CCC(=O)O)C(=O)N[C@@H](CCC(N)=O)C(=O)N[C@@H](C)C(=O)N[C@@H](CCC(=O)O)C(=O)N[C@H](C(=O)N[C@@H](CC(N)=O)C(=O)NC(C)(C)C(=O)N[C@@H](CCC(N)=O)C(=O)N[C@H](C(=O)N[C@@H](CC(C)C)C(=O)N[C@@H](C)C(=O)N[C@@H](CCC(N)=O)C(=O)N[C@H](C(N)=O)C(C)C)[C@@H](C)CC)[C@@H](C)O)[C@@H](C)CC)[C@@H](C)CC)C(C)C)C(C)C
B3 displayed an EC50 [nM] (cAMP) of 0.41 nM.

B4: SEQ ID NO 236 (peptide)
peptide: Ac-IVLSLD[dV]PIKLK([AEEA-AEEA-γGlu-C20 diacid])KILLEQEKQKEQREQAETN[Aib]QILAQV-NH2
SMILES: CC[C@H](C)[C@H](NC(C)=O)C(=O)N[C@H](C(=O)N[C@@H](CC(C)C)C(=O)N[C@@H](CO)C(=O)N[C@@H](CC(C)C)C(=O)N[C@@H](CC(=O)O)C(=O)N[C@@H](C(=O)N1CCC[C@H]1C(=O)N[C@H](C(=O)N[C@@H](CCCCN)C(=O)N[C@@H](CC(C)C)C(=O)N[C@@H](CCCCNC(=O)COCCOCCNC(=O)COCCOCCNC(=O)CC[C@H](NC(=O)CCCCCCCCCCCCCCCCCCC(=O)O)C(=O)O)C(=O)N[C@@H](CCCCN)C(=O)N[C@H](C(=O)N[C@@H](CC(C)C)C(=O)N[C@@H](CC(C)C)C(=O)N[C@@H](CCC(=O)O)C(=O)N[C@@H](CCC(N)=O)C(=O)N[C@@H](CCC(=O)O)C(=O)N[C@@H](CCCCN)C(=O)N[C@@H](CCC(N)=O)C(=O)N[C@@H](CCCCN)C(=O)N[C@@H](CCC(=O)O)C(=O)N[C@@H](CCC(N)=O)C(=O)N[C@@H](CCCNC(=N)N)C(=O)N[C@@H](CCC(=O)O)C(=O)N[C@@H](CCC(N)=O)C(=O)N[C@@H](C)C(=O)N[C@@H](CCC(=O)O)C(=O)N[C@H](C(=O)N[C@@H](CC(N)=O)C(=O)NC(C)(C)C(=O)N[C@@H](CCC(N)=O)C(=O)N[C@H](C(=O)N[C@@H](CC(C)C)C(=O)N[C@@H](C)C(=O)N[C@@H](CCC(N)=O)C(=O)N[C@H](C(N)=O)C(C)C)[C@@H](C)CC)[C@@H](C)O)[C@@H](C)CC)[C@@H](C)CC)C(C)C)C(C)C
Take B4: the EC50 [nM] (cAMP) stood at 0.54 nM.

B5: SEQ ID NO 241 (peptide)
peptide: Ac-IVLSLD[dV]PIKLK([γGlu-γGlu-C20 diacid])KILLEQEKQKEQREQAETN[Aib]QILAQV-NH2
SMILES: CC[C@H](C)[C@H](NC(C)=O)C(=O)N[C@H](C(=O)N[C@@H](CC(C)C)C(=O)N[C@@H](CO)C(=O)N[C@@H](CC(C)C)C(=O)N[C@@H](CC(=O)O)C(=O)N[C@@H](C(=O)N1CCC[C@H]1C(=O)N[C@H](C(=O)N[C@@H](CCCCN)C(=O)N[C@@H](CC(C)C)C(=O)N[C@@H](CCCCNC(=O)CC[C@H](NC(=O)CC[C@H](NC(=O)CCCCCCCCCCCCCCCCCCC(=O)O)C(=O)O)C(=O)O)C(=O)N[C@@H](CCCCN)C(=O)N[C@H](C(=O)N[C@@H](CC(C)C)C(=O)N[C@@H](CC(C)C)C(=O)N[C@@H](CCC(=O)O)C(=O)N[C@@H](CCC(N)=O)C(=O)N[C@@H](CCC(=O)O)C(=O)N[C@@H](CCCCN)C(=O)N[C@@H](CCC(N)=O)C(=O)N[C@@H](CCCCN)C(=O)N[C@@H](CCC(=O)O)C(=O)N[C@@H](CCC(N)=O)C(=O)N[C@@H](CCCNC(=N)N)C(=O)N[C@@H](CCC(=O)O)C(=O)N[C@@H](CCC(N)=O)C(=O)N[C@@H](C)C(=O)N[C@@H](CCC(=O)O)C(=O)N[C@H](C(=O)N[C@@H](CC(N)=O)C(=O)NC(C)(C)C(=O)N[C@@H](CCC(N)=O)C(=O)N[C@H](C(=O)N[C@@H](CC(C)C)C(=O)N[C@@H](C)C(=O)N[C@@H](CCC(N)=O)C(=O)N[C@H](C(N)=O)C(C)C)[C@@H](C)CC)[C@@H](C)O)[C@@H](C)CC)[C@@H](C)CC)C(C)C)C(C)C
Molecule B5 registered an EC50 [nM] (cAMP) of 0.56 nM.

B6: SEQ ID NO 240 (peptide)
peptide: Ac-IVLSLD[dV]PIKLK([AEEA-AEEA-γGlu-C20 diacid])KILLEQEKQKAQREQAETN[Aib]QILAQV-NH2
SMILES: CC[C@H](C)[C@H](NC(C)=O)C(=O)N[C@H](C(=O)N[C@@H](CC(C)C)C(=O)N[C@@H](CO)C(=O)N[C@@H](CC(C)C)C(=O)N[C@@H](CC(=O)O)C(=O)N[C@@H](C(=O)N1CCC[C@H]1C(=O)N[C@H](C(=O)N[C@@H](CCCCN)C(=O)N[C@@H](CC(C)C)C(=O)N[C@@H](CCCCNC(=O)COCCOCCNC(=O)COCCOCCNC(=O)CC[C@H](NC(=O)CCCCCCCCCCCCCCCCCCC(=O)O)C(=O)O)C(=O)N[C@@H](CCCCN)C(=O)N[C@H](C(=O)N[C@@H](CC(C)C)C(=O)N[C@@H](CC(C)C)C(=O)N[C@@H](CCC(=O)O)C(=O)N[C@@H](CCC(N)=O)C(=O)N[C@@H](CCC(=O)O)C(=O)N[C@@H](CCCCN)C(=O)N[C@@H](CCC(N)=O)C(=O)N[C@@H](CCCCN)C(=O)N[C@@H](C)C(=O)N[C@@H](CCC(N)=O)C(=O)N[C@@H](CCCNC(=N)N)C(=O)N[C@@H](CCC(=O)O)C(=O)N[C@@H](CCC(N)=O)C(=O)N[C@@H](C)C(=O)N[C@@H](CCC(=O)O)C(=O)N[C@H](C(=O)N[C@@H](CC(N)=O)C(=O)NC(C)(C)C(=O)N[C@@H](CCC(N)=O)C(=O)N[C@H](C(=O)N[C@@H](CC(C)C)C(=O)N[C@@H](C)C(=O)N[C@@H](CCC(N)=O)C(=O)N[C@H](C(N)=O)C(C)C)[C@@H](C)CC)[C@@H](C)O)[C@@H](C)CC)[C@@H](C)CC)C(C)C)C(C)C
Molecule B6 showed an EC50 [nM] (cAMP) of 0.22 nM.

These data come from patent US20260001928A1 (CORTERIA PHARMACEUTICALS, priority 2022, published 2026).
